# Measurements published in IntAct's records for PubMed 31515488.
# B1: TNF receptor-associated factor 2 (Homo sapiens), Q12933 (parent)
# chain: MAAASVTPPGSLELLQPGFSKTLLGTKLEAKYLCSACRNVLRRPFQAQCGHRYCSFCLASILSSGPQNCAACVHEGIYEEGISILESSSAFPDNAARREVESLPAVCPSDGCTWKGTLKEYESCHEGRCPLMLTECPACKGLVRLGEKERHLEHECPERSLSCRHCRAPCCGADVKAHHEVCPKFPLTCDGCGKKKIPREKFQDHVKTCGKCRVPCRFHAIGCLETVEGEKQQEHEVQWLREHLAMLLSSVLEAKPLLGDQSHAGSELLQRCESLEKKTATFENIVCVLNREVERVAMTAEACSRQHRLDQDKIEALSSKVQQLERSIGLKDLAMADLEQKVLEMEASTYDGVFIWKISDFARKRQEAVAGRIPAIFSPAFYTSRYGYKMCLRIYLNGDGTGRGTHLSLFFVVMKGPNDALLRWPFNQKVTLMLLDQNNREHVIDAFRPDVTSSSFQRPVNDMNIASGCPLFCPVSKMEAKNSYVRDDAIFIKAIVDLTGL
# Variants of: B1
# Settings: with traf1_human TRAF1, Q13077
# Chain of traf1_human TRAF1, Q13077 (Q13077 whole entry): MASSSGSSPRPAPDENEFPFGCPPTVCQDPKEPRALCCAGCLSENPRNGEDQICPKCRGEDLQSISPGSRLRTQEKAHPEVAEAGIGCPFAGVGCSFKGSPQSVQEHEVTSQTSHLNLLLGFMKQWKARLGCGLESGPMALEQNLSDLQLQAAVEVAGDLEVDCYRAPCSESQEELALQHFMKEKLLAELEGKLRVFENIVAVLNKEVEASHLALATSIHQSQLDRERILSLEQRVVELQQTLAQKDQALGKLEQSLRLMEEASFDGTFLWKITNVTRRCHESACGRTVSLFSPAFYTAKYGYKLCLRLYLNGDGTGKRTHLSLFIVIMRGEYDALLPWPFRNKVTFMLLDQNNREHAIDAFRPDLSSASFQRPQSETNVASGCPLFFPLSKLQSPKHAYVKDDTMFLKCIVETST
row,effect of a mutation on the interaction,Variant
1,with no effect,MAAASVTPPGSLELLQPGFSKTLLGTKLEAKYLCSACRNVLRRPFQAQCGHRYCSFCLASILSSGPQNCAACVHEGIYEEGISILESSSAFPDNAARREVESLPAVCPSDGCTWKGTLKEYESCHEGRCPLMLAECPACKGLVRLGEKERHLEHECPERSLSCRHCRAPCCGADVKAHHEVCPKFPLTCDGCGKKKIPREKFQDHVKTCGKCRVPCRFHAIGCLETVEGEKQQEHEVQWLREHLAMLLSSVLEAKPLLGDQSHAGSELLQRCESLEKKTATFENIVCVLNREVERVAMTAEACSRQHRLDQDKIEALSSKVQQLERSIGLKDLAMADLEQKVLEMEASTYDGVFIWKISDFARKRQEAVAGRIPAIFSPAFYTSRYGYKMCLRIYLNGDGTGRGTHLSLFFVVMKGPNDALLRWPFNQKVTLMLLDQNNREHVIDAFRPDVTSSSFQRPVNDMNIASGCPLFCPVSKMEAKNSYVRDDAIFIKAIVDLTGL [T134A]
2,with no effect,MAAASVTPPGSLELLQPGFSKTLLGTKLEAKYLCSACRNVLRRPFQAQCGHRYCSFCLASILSSGPQNCAACVHEGIYEEGISILESSSAFPDNAARREVESLPAVCPSDGCTWKGTLKEYESCHEGRCPLMLTECPACKGLVRLGEKERHLEHECPERSLSCRHCRAPCCGADVKAHHEVCPKFPLTCDGCGKKKIPREKFQDHVKTCGKCRVPCRFHAIGCLETVEGEKQQEHEVQWLREHLAMLLSSVLEAKPLLGDQSHAGSELLQRCESLEKKTATFENIVCVLNREVERVAMTAEACSRQHRLDQDKIEALSSKVQQLERSIGLKDLAMADLEQKVLEMEASTYDGVFIWKISDFARKRQEAVAGRIPAIFSPAFYTSRYGYKMCLRIYLNGDGTGRGTHLSLFFVVMKGPNDALLRWPFNQKVTLMLLDQNNREHVIDAFRPDVTSSSFQRPVNDMNIASGCPLFCPISKMEAKNSYVRDDAIFIKAIVDLTGL [V475I]
3,with no effect,MAAASVTPPGSLELLQPGFSKTLLGTKLEAKYLCSACRNVLRRPFQAQCGHRYCSFCLASILSSGPQNCAACVHEGIYEEGISILESSSAFPDNAARREVESLPAVCPSDGCTWKGTLKEYESCHEGRCPLMLTECPACKGLVRLGEKERHLEHECPERSLSCRHCRAPCCGADVKAHHEVCPKFPLTCDGCGKKKIPREKFQDHVKTCGKCRVPCRFHAIGCLETVEGEKQQEHEVQWLREHLAMLLSSVLEAKPLLGDQSHTGSELLQRCESLEKKTATFENIVCVLNREVERVAMTAEACSRQHRLDQDKIEALSSKVQQLERSIGLKDLAMADLEQKVLEMEASTYDGVFIWKISDFARKRQEAVAGRIPAIFSPAFYTSRYGYKMCLRIYLNGDGTGRGTHLSLFFVVMKGPNDALLRWPFNQKVTLMLLDQNNREHVIDAFRPDVTSSSFQRPVNDMNIASGCPLFCPVSKMEAKNSYVRDDAIFIKAIVDLTGL [A264T]
4,with no effect,MAAASVTPPGSLELLQPGFSKTLLGTKLEAKYLCSACRNVLRRPFQAQCGHRYCSFCLASILSSGPQNCAACVHEGIYEEGISILESSSAFPDNAARREVESLPAVCPSDGCTWKGTLKEYESCHEGRCPLMLTECPACKGLVRLGEKERHLEHECPERSLSCRHCRAPCCGADVKAHHEVCPKFPLTCDGCGKKKIPREKFQDHVKTCGKCRVPCRFHAIGCLETVEGEKQQEHEVQWLREHLAMLLSSVLEAKPLLGDQSHAGSELLQRCESLEKTTATFENIVCVLNREVERVAMTAEACSRQHRLDQDKIEALSSKVQQLERSIGLKDLAMADLEQKVLEMEASTYDGVFIWKISDFARKRQEAVAGRIPAIFSPAFYTSRYGYKMCLRIYLNGDGTGRGTHLSLFFVVMKGPNDALLRWPFNQKVTLMLLDQNNREHVIDAFRPDVTSSSFQRPVNDMNIASGCPLFCPVSKMEAKNSYVRDDAIFIKAIVDLTGL [K278T]
5,with no effect,MAAASVTPPGSLELLQPGFSKTLLGTKLEAKYLCSACRNVLRRPFQAQCGHRYCSFCLASILSSGPQNCAACVHEGIYEEGISILESSSAFPDNAARREVESLPAVCPSDGCTWKGTLKEYESCHEGRCPLMLTECPACKGLVRLGEKERHLEHECPERSLSCRHCRAPCCGADVKAHHEVCPKFPLTCDGCGKKKIPREKFQDHVKTCGKCRVPCRFHAIGCLETVEGEKQQEHEVQWLREHLAMLLSSVLEAKPLLGDQSHAGSELLQRCESLQKKTATFENIVCVLNREVERVAMTAEACSRQHRLDQDKIEALSSKVQQLERSIGLKDLAMADLEQKVLEMEASTYDGVFIWKISDFARKRQEAVAGRIPAIFSPAFYTSRYGYKMCLRIYLNGDGTGRGTHLSLFFVVMKGPNDALLRWPFNQKVTLMLLDQNNREHVIDAFRPDVTSSSFQRPVNDMNIASGCPLFCPVSKMEAKNSYVRDDAIFIKAIVDLTGL [E276Q]
6,with no effect,MAAASVTPPGSLELLQPGFSKTLLGTKLEAKYLCSACRNVLRRPFQAQCGHRYCSFCLASILSSGPQNCAACVHEGIYEEGISILESSSAFPDNAARREVESLPAVCPSDGCTWKGTLKEYESCHEGRCPLMLTECPACKGLVRLGEKERHLEHECPERSLSCRHCRAPCCGADVKAHHEVCPKFPLTCDGCGKKKIPREKFQDHIKTCGKCRVPCRFHAIGCLETVEGEKQQEHEVQWLREHLAMLLSSVLEAKPLLGDQSHAGSELLQRCESLEKKTATFENIVCVLNREVERVAMTAEACSRQHRLDQDKIEALSSKVQQLERSIGLKDLAMADLEQKVLEMEASTYDGVFIWKISDFARKRQEAVAGRIPAIFSPAFYTSRYGYKMCLRIYLNGDGTGRGTHLSLFFVVMKGPNDALLRWPFNQKVTLMLLDQNNREHVIDAFRPDVTSSSFQRPVNDMNIASGCPLFCPVSKMEAKNSYVRDDAIFIKAIVDLTGL [V206I]
